Data on 14 molecules can be found in patent US6979727B2, “Recombinant conglutinin and producing method thereof” (Fuso Pharmaceutical Industries, Ltd., priority 1995, dated 2005).

The target of series [1] is T1, Recombinant Conglutinin (Bos taurus, UniProt P23805).
T1 sequence (P23805 211-371): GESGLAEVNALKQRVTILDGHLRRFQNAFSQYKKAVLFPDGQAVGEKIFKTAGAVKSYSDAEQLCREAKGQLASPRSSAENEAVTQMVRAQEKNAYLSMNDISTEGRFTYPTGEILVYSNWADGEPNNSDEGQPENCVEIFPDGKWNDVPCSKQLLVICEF
Nature of the series: Sugar inhibition of binding to mannan-coated plates (ELISA). Background: An ELISA detects its analyte on a solid surface through an enzyme-linked reagent.

Series [2] concerns the target iC3b on sheep erythrocyte cells (horse (from fresh horse serum)). The series can be described thus: cell-based or functional assay.
Series [3] relates to Influenza A viruses. Nature of the series: HI activity of collectins (method of Example 5). The series is classed as cell-based, Influenza A virus. To be noted: Table 4.
Series [4] deals with Influenza A viruses. The series can be described thus: Neutralization activity of collectins (method of Example 6). The format is cell-based, Influenza A virus.
The subject of series [5] is Influenza A viruses. The format is cell-based, Influenza A virus.
Series [6] deals with Hemagglutinin (HA). To be noted: Table 4, Western blotting. Background: A western blot detects proteins with antibodies after separation by electrophoresis.
Series [7] concerns A/Adachi/1/57(H2N2). The series is classed as cell-based, Influenza A virus.
Series [8] deals with A/Ibaraki/1/90(H3N2). Nature of the series: Neutralization activities in MDCK cells, PAP staining. The series is classed as cell-based, Influenza A virus.
The test system of series [9] is sheep erythrocyte cells with iC3b. The series can be described thus: Conglutination activities, microtiter plate assay system. The conditions noted are these: 1% sheep erythrocyte cells with iC3b, 37° C., veronal buffer. The series is classed as cell-based. How it is done: Conglutination activities of the recombinant conglutinin and the native conglutinin were evaluated by Microtiter plate assay system. Sheep erythrocyte cells with iC3b were prepared according to the method of Wakamiya et al., (Biochem. Biophys. Res. Comm., Vol. 187, pp. 1270-1278, 1992). Namely, 1% sheep erythrocyte cells with iC3b were prepared by priming with a mixture of ten-fold diluted fresh horse serum and equivalent amount of anti-Forssmann antibody, and incubated at 37° C. for ten minutes.
50 μl of 1% sheep erythrocyte cells with iC3b and 50 μl of the recombinant conglutinin or 50 μl of the native conglutinin was added to the raw veronal buffer or the veronal buffer containing 30 mM N-acetylglucosamine. Then, they were incubated at 37° C. and the conglutination activities thereon were detected. The lowest concentration of the proteins to cause agglutination is regarded as titer of conglutination, then the results are shown in FIG. 8. In FIG. 8, Lane A is the native conglutinin, Lane B is the recombinant conglutinin and Lane C is the recombinant conglutinin containing 30 mM N-acetylglucosamine. Titer of conglutination on the native conglutinin was 0.16 μg/ml, while that of the recombinant conglutinin was 1.3-2.5 μg/ml.

Series [10] concerns A/Suita/1/89(H1N1). Nature of the series: Hemagglutination Inhibition (HI) with chick's erythrocytes. The format is cell-based, Influenza A virus.
Series [11] has as its system A/Ibaraki/1/90(H3N2). Described as above. The series is classed as cell-based, Influenza A virus.

As for `C[C@@H](O)[C@H](O)[C@H](O)[C@@H](O)C=O` [D-Fucose], in series [1], the IC50 was found to be 55.3 mM.
With `O=C[C@@H](O)[C@@H](O)[C@H](O)[C@H](O)CO` [D-Mannose], the IC50 in series [1] is 12.3 mM.
Still for that read-out and setting: for `O=C[C@H](O)[C@@H](O)[C@@H](O)[C@H](O)CO` [Galactose] the value was 46.8 mM; for `C[C@H](O)[C@@H](O)[C@@H](O)[C@H](O)C=O` [L-Fucose], 37.8 mM.
For the molecule `OC[C@H]1O[C@@H](O[C@H]2[C@H](O)[C@@H](O)C(O)O[C@@H]2CO)[C@H](O)[C@@H](O)[C@H]1O` (stereo partly drawn) [Lactose], the IC50 in series [1] was > 100 mM.
The same measure, in the same setting: then `OC[C@H]1O[C@H](O[C@H]2[C@H](O)[C@@H](O)[C@H](O)O[C@@H]2CO)[C@H](O)[C@@H](O)[C@@H]1O` [Maltose], with 25.8 mM; and `CC(=O)N[C@H]1C(O)O[C@H](CO)[C@@H](O)[C@@H]1O` (stereo partly drawn) [N-Acetyl-D-Glucosamine], with 0.65 mM.
On the same count and under the same terms, for `CC(=O)N[C@@H]1C(O)O[C@H](CO)[C@@H](O)[C@@H]1O` (stereo partly drawn) [N-Acetyl-D-Mannosamine] the value was 26.6 mM.
Turning to “Native bovine conglutinin (from UniProt P23805 21-371)”, in series [2], the Titer of conglutination (lowest concentration of the proteins to cause agglutination) was found to be 0.16 µg/mL.
Turning to “native hMBP: native human mannan-binding protein (hMBP)”, in [3], the “HI Activity” value is “+”. Besides, the “Neutralization Activity (Minimum Protein Concentration)” value in series [4] is > 5 µg/mL. In addition, in series [4] (Table 4), the “Neutralization Activity” value is recorded as “−”. Moreover, the “Neutralization Activity” value in [4] (Table 5, class symbol) is listed as “−”. In [5], the “Present Method” value is recorded as “+” and the “Viral Growth Inhibition Activity (Minimum Protein Concentration)” value stood at 0.05 µg/mL. In addition, in series [5] (0, 0.25 and 0.5 μg/ml, three days, MDCK cells (FIG. 14)), the “area of the infected focus / viral growth” value is “reduced the area of the infected focus in a dose-dependent manner”. In addition, the “Viral Growth Inhibition Activity” value in series [5] (Table 6, class symbol) is “+”. For the same molecule, the “HA Binding” value in [6] is “−”.

B1: Human Surfactant Protein (hSP-D) Native: native human surfactant protein D (protein, UniProt P35247 21-375, looked up)
Pulmonary …: AEMKTYSHRTMPSACTLVMCSSVESGLPGRDGRDGREGPRGEKGDPGLPGAAGQAGMPGQAGPVGPKGDNGSVGEPGPKGDTGPSGPPGPPGVPGPAGREGPLGKQGNIGPQGKPGPKGEAGPKGEVGAPGMQGSAGARGLAGPKGERGVPGERGVPGNTGAAGSAGAMGPQGSPGARGPPGLKGDKGIPGDKGAKGESGLPDVASLRQQVEALQGQVQHLQAAFSQYKKVELFPNGQSVGEKIFKTAGFVKPFTEAQLLCTQAGGQLASPRSAAENAALQQLVVAKNEAAFLSMTDSKTEGKFTYPTGESLVYSNWAPGEPNDDGGSEDCVEIFTNGKWNDRACGEKRLVVCEF
For the molecule B1, the “HI Activity” value in series [3] is given as “+”. In [4] (Table 4), the “Neutralization Activity” value was “+”. Further, the “Present Method” value in series [5] is listed as “−”. In addition, in series [6], the “HA Binding” value is on record as “+”.

B2: Human Surfactant Protein (hSP-D) Recombinant: recombinant human surfactant protein D (protein, UniProt P35247 21-375, looked up)
Pulmonary …: AEMKTYSHRTMPSACTLVMCSSVESGLPGRDGRDGREGPRGEKGDPGLPGAAGQAGMPGQAGPVGPKGDNGSVGEPGPKGDTGPSGPPGPPGVPGPAGREGPLGKQGNIGPQGKPGPKGEAGPKGEVGAPGMQGSAGARGLAGPKGERGVPGERGVPGNTGAAGSAGAMGPQGSPGARGPPGLKGDKGIPGDKGAKGESGLPDVASLRQQVEALQGQVQHLQAAFSQYKKVELFPNGQSVGEKIFKTAGFVKPFTEAQLLCTQAGGQLASPRSAAENAALQQLVVAKNEAAFLSMTDSKTEGKFTYPTGESLVYSNWAPGEPNDDGGSEDCVEIFTNGKWNDRACGEKRLVVCEF
B2: the “HI Activity” value in series [3] was “−”. For the same molecule, the “Neutralization Activity” value in series [4] (Table 4) is “−”. Further, the “Present Method” value in [5] was “−”.

B3: Native Conglutinin: animal lectin of the calcium-dependent mammalian C-type lectin family existing in bovine serum (protein, UniProt P23805 21-371, looked up)
Conglutinin: AEMTTFSQKILANACTLVMCSPLESGLPGHDGQDGRECPHGEKGDPGSPGPAGRAGRPGWVGPIGPKGDNGFVGEPGPKGDTGPRGPPGMPGPAGREGPSGKQGSMGPPGTPGPKGETGPKGGVGAPGIQGFPGPSGLKGEKGAPGETGAPGRAGVTGPSGAIGPQGPSGARGPPGLKGDRGDPGETGAKGESGLAEVNALKQRVTILDGHLRRFQNAFSQYKKAVLFPDGQAVGEKIFKTAGAVKSYSDAEQLCREAKGQLASPRSSAENEAVTQMVRAQEKNAYLSMNDISTEGRFTYPTGEILVYSNWADGEPNNSDEGQPENCVEIFPDGKWNDVPCSKQLLVICEF
In the case of B3, the “Expression Concentration on Hemagglutination Inhibition (HI)” value in series [7] was >5 µg/mL; in series [10], 0.08 µg/mL; in [11], 0.08 µg/mL. In addition, in [3], the “HI Activity” value was “+”. The “Neutralization Activity” value in series [4] (Table 4) is on record as “+”. The “Present Method” value in series [5] is on record as “−”. The “Neutralization Titer (concentration to inhibit half (50%) of the infection)” value in [8] came out at 0.08 µg/mL. In addition, the “HA Binding” value in series [6] was “+”. Besides, in series [9], the “Titer of conglutination (lowest concentration of the proteins to cause agglutination)” value is 0.16 µg/mL.

B4: Bovine Conglutinin: bovine conglutinin of Table 5; native or recombinant not stated (protein, UniProt P23805 21-371, looked up)
Conglutinin: AEMTTFSQKILANACTLVMCSPLESGLPGHDGQDGRECPHGEKGDPGSPGPAGRAGRPGWVGPIGPKGDNGFVGEPGPKGDTGPRGPPGMPGPAGREGPSGKQGSMGPPGTPGPKGETGPKGGVGAPGIQGFPGPSGLKGEKGAPGETGAPGRAGVTGPSGAIGPQGPSGARGPPGLKGDRGDPGETGAKGESGLAEVNALKQRVTILDGHLRRFQNAFSQYKKAVLFPDGQAVGEKIFKTAGAVKSYSDAEQLCREAKGQLASPRSSAENEAVTQMVRAQEKNAYLSMNDISTEGRFTYPTGEILVYSNWADGEPNNSDEGQPENCVEIFPDGKWNDVPCSKQLLVICEF
In the case of B4, the “Neutralization Activity (Minimum Protein Concentration)” value in series [4] came out at 0.09 µg/mL. Also, in series [4] (Table 5, class symbol), the “Neutralization Activity” value was “+”.

The IC50 is the concentration that gives 50% inhibition.
